Experimental data published in patent US7745151B2, “Methods of determining binding between Nogo receptor and p75 neurotrophin receptor” (Children's Medical Center Corporation, priority 2002, dated 2010).

B1: AP-p75: alkaline phosphatase (AP) fusion protein containing the extracellular domain of P75 (protein)
chain: KETCSTGLYTHSGECCKACNLGEGVAQPCGANQTVCEPCLDNVTFSDVVSATEPCKPCTECLGLQSMSAPCVEADDAVCRCAYGYYQDEETGHCEACSVCEVGSGLVFSCQDKQNTVCEECPEGTYSDEANHVDPCLPCTVCEDTERQLRECTPWADAECEEIPGRWIPRSTPPEGSDSTAPSTQEPEVPPEQDLVPSTVADMVTTVMGSSQPVVTRGTTDNLI
modifications: left off: large carriers; small tags and cut ends
B2: OM-his: myelin inhibitor protein; his-tagged OMgp (protein, UniProt P23515 25-417, looked up)
Oligodendrocyte-myelin …: ICPLQCICTERHRHVDCSGRNLSTLPSGLQENIIHLNLSYNHFTDLHNQLTQYTNLRTLDISNNRLESLPAHLPRSLWNMSAANNNIKLLDKSDTAYQWNLKYLDVSKNMLEKVVLIKNTLRSLEVLNLSSNKLWTVPTNMPSKLHIVDLSNNSLTQILPGTLINLTNLTHLYLHNNKFTFIPDQSFDQLFQLQEITLYNNRWSCDHKQNITYLLKWMMETKAHVIGTPCSTQISSLKEHNMYPTPSGFTSSLFTVSGMQTVDTINSLSVVTQPKVTKIPKQYRTKETTFGATLSKDTTFTSTDKAFVPYPEDTSTETINSHEAAAATLTIHLQDGMVTNTSLTSSTKSSPTPMTLSITSGMPNNFSEMPQQSTTLNLWREETTTNVKTPLPS
modifications: His tag
notes: his-tagged OMgp

Experiments:
[1] = biological target: T1, CHO cells expressing full-length NgR (Homo sapiens, UniProt Q9BZR6); assay: Cell surface binding assay of AP-p75
T1 construct: expressed in transfected cells; host or cells: CHO cells
T1 sequence (Q9BZR6 27-473): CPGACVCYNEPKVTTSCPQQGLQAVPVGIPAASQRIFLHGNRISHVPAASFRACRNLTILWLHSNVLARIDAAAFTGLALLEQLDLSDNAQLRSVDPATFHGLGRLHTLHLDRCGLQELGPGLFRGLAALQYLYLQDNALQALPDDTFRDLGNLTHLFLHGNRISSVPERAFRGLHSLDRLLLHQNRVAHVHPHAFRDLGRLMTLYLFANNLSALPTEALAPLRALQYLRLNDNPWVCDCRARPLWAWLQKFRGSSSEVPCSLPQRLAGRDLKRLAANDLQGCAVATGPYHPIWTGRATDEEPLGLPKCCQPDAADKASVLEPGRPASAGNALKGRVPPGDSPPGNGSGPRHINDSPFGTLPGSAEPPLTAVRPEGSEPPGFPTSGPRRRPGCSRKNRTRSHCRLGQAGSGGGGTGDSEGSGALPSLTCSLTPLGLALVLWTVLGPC
Text: When we overexpress HA-tagged P75 and FLAG-tagged NgR into CHO cells, we find that p75 can be co-immunoprecipitated with NgR, but not with a control transmembrane protein Plexin A3. We also utilize a cell surface binding assay to better visualize the NgR/P75 interaction.
Upon expression in cerebellar granule neurons (CGNs), this truncated NgR, but not full-length NgR, blocks the inhibitory responses elicited by immobilized inhibitors.
Exemplary experimental protocols: Binding experiments: Sequence encoding the extracellular domain of rat p75 was subcloned into the expression vector AP-5 to express an AP-p75 fusion protein tagged with both a polyhistidine and a myc epitope. The resultant plasmid DNA was transfected into COS-7 cells and the secreted protein purified using nickel-Agarose resins (Qiagen). Cell surface binding with AP-p75 and other AP proteins were performed as described previously. For visualization of bound proteins, NBT and BCIP were used as AP substrates.

DRG neurons = assay: Neurite outgrowth assay, wild type versus P75 mutant neurons; assay type: cell-based, mice
Text: We use a neurite outgrowth assay to compare the responses of neurons from wild type mice and those carrying a mutation in the P75 gene to individual inhibitors (Lee et al., Cell 1992 May 29; 69(5):737-49). Neurite outgrowth of DRG neurons from P75 (−/−) was not inhibited by MAG-Fc.

Molecule | binding of AP-p75 to NgR-expressing cells [1] | neurite outgrowth inhibition (DRG neurons; neurons from P75 (-/-) mice) | neurite outgrowth inhibition (DRG neurons; wild type neurons)
B1 | able to bind CHO cells expressing full-length NgR specifically |  | 
B2 |  | neither of these proteins restrict neurite outgrowth | efficiently inhibited
